Test results from the supplement of paper PMC10065799, “High-throughput profiling of sequence recognition by tyrosine kinases and SH2 domains using bacterial peptide display” (eLife, 2023).

Experiments:
Grb2 SH2 = Grb2 SH2 (UniProt P62993); test: SH2 binding enrichment of the phosphorylated peptide, bacterial display (enrichment ratio); higher = better substrate or ligand; peptides without Tyr show the background
SHP2-C SH2 = test: as above
c-Src SH2 = test: as above
Hck = Hck (UniProt P08631); test: phosphorylation enrichment, bacterial display (enrichment ratio); higher = better substrate or ligand; peptides without Tyr show the background
FGFR3 = FGFR3 (UniProt P22607); test: as above
Sequence of FGFR3 (P22607 whole entry, looked up): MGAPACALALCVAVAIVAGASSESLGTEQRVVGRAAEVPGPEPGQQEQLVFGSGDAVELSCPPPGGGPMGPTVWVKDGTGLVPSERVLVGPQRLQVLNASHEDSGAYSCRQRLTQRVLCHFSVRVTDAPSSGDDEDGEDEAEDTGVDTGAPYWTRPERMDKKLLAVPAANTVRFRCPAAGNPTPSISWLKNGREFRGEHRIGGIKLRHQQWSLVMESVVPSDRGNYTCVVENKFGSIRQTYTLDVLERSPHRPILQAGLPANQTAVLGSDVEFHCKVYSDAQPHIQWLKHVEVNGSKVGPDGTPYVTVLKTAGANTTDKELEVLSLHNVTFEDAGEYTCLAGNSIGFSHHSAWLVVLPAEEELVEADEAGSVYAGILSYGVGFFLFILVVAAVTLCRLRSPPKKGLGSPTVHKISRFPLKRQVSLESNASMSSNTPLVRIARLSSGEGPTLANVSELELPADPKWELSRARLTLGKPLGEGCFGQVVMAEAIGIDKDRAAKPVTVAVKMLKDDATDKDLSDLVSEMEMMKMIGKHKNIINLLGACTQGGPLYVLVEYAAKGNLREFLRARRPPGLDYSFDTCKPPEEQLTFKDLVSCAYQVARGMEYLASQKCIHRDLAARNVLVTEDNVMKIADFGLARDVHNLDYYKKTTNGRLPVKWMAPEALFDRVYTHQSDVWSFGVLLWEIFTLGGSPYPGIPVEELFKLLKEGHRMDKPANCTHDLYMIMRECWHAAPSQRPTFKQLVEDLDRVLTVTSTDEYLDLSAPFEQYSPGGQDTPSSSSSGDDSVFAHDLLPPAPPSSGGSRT

c-Src = test: as above
Fer (mouse) = test: as above
MERTK = MERTK (UniProt Q12866); test: as above
EPHB1 = EPHB1 (UniProt P54762); test: as above
Jak2 = Jak2 (UniProt O60674); test: as above
Sequence of Jak2 (O60674 whole entry, looked up): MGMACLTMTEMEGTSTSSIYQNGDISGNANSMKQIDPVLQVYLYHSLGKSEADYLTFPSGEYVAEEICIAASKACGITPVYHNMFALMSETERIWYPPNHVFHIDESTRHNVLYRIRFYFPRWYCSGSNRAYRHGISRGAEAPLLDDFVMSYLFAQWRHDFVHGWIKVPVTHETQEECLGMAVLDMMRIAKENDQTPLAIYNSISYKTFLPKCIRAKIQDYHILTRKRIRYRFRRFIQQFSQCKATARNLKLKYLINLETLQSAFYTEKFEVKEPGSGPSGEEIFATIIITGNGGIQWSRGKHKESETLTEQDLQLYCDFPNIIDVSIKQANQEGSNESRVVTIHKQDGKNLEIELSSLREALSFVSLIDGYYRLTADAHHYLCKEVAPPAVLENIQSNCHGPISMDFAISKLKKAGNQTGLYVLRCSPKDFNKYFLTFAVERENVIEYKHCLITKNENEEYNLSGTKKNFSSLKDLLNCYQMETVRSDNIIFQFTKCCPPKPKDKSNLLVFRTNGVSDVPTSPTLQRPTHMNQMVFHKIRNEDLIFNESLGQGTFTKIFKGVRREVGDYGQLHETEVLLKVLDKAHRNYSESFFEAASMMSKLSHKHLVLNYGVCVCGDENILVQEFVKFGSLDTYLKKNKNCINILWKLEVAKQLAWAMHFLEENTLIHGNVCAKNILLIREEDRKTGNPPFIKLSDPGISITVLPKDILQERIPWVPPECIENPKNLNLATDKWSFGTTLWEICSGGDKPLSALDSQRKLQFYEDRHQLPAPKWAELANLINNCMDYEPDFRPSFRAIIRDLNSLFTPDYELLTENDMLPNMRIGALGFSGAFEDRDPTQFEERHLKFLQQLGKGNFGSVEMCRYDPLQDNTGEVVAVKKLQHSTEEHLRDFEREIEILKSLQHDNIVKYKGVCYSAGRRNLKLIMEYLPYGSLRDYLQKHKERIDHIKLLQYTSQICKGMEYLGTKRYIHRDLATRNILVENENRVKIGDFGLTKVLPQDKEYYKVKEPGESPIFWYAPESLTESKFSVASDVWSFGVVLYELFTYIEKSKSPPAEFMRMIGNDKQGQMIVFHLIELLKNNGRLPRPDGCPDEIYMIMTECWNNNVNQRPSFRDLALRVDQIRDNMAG

AncSZ = test: as above
Fyn = Fyn (UniProt P06241); test: as above
Fes = Fes (UniProt P07332); test: as above
Sequence of Fes (P07332 whole entry, looked up): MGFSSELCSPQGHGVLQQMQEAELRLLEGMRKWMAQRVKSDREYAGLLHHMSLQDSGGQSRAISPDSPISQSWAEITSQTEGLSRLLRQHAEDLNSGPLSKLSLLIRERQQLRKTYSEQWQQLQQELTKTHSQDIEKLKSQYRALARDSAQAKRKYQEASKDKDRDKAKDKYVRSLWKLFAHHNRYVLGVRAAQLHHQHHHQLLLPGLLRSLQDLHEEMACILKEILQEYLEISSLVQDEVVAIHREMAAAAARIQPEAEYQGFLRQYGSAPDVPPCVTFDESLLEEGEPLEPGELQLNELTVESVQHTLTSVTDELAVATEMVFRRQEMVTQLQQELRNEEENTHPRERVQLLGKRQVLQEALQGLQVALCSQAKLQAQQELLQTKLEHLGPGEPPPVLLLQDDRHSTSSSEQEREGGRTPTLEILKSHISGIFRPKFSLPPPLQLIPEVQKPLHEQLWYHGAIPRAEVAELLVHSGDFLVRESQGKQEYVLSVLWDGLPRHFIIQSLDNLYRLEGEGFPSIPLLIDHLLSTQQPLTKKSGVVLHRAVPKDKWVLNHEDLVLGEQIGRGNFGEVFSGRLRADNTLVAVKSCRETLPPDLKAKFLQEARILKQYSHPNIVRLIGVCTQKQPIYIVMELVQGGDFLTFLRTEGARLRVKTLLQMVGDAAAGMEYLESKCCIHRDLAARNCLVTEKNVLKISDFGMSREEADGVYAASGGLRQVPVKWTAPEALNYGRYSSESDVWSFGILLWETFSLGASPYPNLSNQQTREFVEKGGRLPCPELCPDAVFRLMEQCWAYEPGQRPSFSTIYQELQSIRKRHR

FGFR1 = FGFR1 (UniProt P11362); test: as above
Sequence of FGFR1 (P11362 whole entry, looked up): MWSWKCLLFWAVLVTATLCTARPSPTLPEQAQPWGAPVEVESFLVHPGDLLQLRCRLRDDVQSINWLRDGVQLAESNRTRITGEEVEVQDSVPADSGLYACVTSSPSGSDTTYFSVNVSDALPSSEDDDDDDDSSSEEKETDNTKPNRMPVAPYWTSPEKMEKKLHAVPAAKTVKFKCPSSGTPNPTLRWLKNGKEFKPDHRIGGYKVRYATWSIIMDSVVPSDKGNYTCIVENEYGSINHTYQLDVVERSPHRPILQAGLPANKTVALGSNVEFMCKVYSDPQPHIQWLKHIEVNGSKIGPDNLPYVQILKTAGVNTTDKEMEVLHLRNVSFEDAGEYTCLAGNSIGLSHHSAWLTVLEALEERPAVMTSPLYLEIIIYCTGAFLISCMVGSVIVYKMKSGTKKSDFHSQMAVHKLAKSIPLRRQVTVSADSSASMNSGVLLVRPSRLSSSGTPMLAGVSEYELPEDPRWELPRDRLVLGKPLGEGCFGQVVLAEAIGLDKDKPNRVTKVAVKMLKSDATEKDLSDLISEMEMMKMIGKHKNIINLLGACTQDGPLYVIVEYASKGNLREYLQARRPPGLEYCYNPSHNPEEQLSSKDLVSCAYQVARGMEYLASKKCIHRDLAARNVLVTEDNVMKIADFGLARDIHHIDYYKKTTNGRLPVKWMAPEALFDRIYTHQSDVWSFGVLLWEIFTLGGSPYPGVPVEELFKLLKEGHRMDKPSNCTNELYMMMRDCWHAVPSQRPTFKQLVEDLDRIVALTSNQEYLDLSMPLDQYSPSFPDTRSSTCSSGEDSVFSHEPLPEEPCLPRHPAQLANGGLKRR

c-Abl (mouse) = test: as above
EPHB2 = EPHB2 (UniProt P29323); test: as above
Sequence of EPHB2 (P29323 whole entry, looked up, the tested form may be a part): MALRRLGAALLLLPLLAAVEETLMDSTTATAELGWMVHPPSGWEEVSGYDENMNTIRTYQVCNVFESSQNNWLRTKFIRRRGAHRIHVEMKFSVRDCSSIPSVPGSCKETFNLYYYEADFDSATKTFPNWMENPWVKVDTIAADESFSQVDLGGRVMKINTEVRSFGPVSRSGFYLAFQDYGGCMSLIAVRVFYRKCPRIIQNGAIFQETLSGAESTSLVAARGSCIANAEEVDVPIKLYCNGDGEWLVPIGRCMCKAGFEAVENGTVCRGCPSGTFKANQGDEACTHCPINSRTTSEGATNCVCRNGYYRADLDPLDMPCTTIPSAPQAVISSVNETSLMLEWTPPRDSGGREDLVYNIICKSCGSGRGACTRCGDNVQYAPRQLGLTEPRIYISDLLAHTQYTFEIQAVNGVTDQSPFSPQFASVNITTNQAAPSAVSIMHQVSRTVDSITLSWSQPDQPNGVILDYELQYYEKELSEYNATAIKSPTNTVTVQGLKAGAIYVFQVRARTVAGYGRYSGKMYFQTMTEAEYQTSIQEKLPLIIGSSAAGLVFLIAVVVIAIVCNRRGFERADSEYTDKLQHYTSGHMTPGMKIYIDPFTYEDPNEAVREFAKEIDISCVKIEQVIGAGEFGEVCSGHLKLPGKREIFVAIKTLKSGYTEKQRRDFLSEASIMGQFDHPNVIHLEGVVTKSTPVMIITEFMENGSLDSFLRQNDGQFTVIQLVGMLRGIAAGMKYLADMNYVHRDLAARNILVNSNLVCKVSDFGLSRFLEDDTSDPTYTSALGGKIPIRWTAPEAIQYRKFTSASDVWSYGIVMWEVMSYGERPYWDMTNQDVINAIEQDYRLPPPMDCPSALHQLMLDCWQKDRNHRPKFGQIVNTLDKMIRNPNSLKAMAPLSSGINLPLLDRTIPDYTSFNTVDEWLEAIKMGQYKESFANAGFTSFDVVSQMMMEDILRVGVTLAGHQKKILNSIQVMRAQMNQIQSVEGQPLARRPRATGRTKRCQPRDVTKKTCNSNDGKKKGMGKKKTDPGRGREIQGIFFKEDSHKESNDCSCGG
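For SH2 binding enrichment of the phosphorylated peptide, bacterial display in this document: peptide library displayed on the E. coli surface as eCPX fusions, selected cells deep-sequenced, score is each peptide's frequency after selection divided by its frequency in the input.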
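For phosphorylation enrichment, bacterial display in this document: 11-residue human phosphosite peptides and single-mutation variants displayed on the E. coli surface, counted by deep sequencing, each peptide's frequency after selection divided by its frequency in the unselected input library; frequency after pTyr selection over input frequency; kinase dosed for 20-30% of maximal phosphorylation in three min.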

Sequence of Grb2 SH2 (P62993 whole entry, looked up): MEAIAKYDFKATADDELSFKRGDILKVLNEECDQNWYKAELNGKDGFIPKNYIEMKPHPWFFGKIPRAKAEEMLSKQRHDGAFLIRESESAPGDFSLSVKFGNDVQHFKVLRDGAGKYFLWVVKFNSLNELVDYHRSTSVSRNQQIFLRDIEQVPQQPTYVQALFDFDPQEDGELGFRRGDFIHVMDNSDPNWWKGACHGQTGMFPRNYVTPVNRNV

Sequence | SH2 binding enrichment (Grb2 SH2) | SH2 binding enrichment (SHP2-C SH2) | SH2 binding enrichment (c-Src SH2) | phosphorylation enrichment (Hck) | phosphorylation enrichment (FGFR3) | phosphorylation enrichment (c-Src) | phosphorylation enrichment (Fer (mouse)) | phosphorylation enrichment (MERTK) | phosphorylation enrichment (EPHB1) | phosphorylation enrichment (Jak2) | phosphorylation enrichment (AncSZ) | phosphorylation enrichment (Fyn) | phosphorylation enrichment (Fes) | phosphorylation enrichment (FGFR1) | phosphorylation enrichment (c-Abl (mouse)) | phosphorylation enrichment (EPHB2)
LENSTYQFICV [CRB1_Y760_R764C_YF] | 0.9 | 0.739 | 0.457 | 3.46 | 3.21 | 1.84 | 8.22 | 2.49 | 4.2 | 1.37 | 2.12 | 2.23 | 1.79 | 3.43 | 1.12 | 2.39
LGRTVYADCLA [ABCA4_Y2063_L2060R] | 1.15 | 3.39 | 1.71 | 0.989 | 1.37 | 0.903 | 1.4 | 0.939 | 1.26 | 1.76 | 0.983 | 0.902 | 2.65 | 0.918 | 1.39 | 1.61
LHRAHYDLCHT [AHSG_Y314_R317C] | 1.13 | 0.935 | 2.25 | 0.47 | 0.648 | 0.495 | 0.516 | 0.435 | 0.572 | 0.88 | 0.814 | 0.401 | 1.12 | 0.513 | 0.777 | 0.542
LIDGFYRLTED [JAK2_Y373_A377E_YF] | 0.699 | 0.678 | 0.661 | 0.552 | 0.747 | 0.895 | 0.613 | 0.549 | 0.586 | 1.11 | 1.31 | 0.66 | 1.54 | 0.537 | 0.974 | 0.89
LIFTNYEAGKD [GSTP1_Y112_YF] | 0.848 | 0.55 | 0.499 | 0.582 | 0.646 | 0.998 | 0.453 | 0.675 | 0.703 | 1.26 | 1.21 | 0.414 | 1.39 | 0.824 | 1.24 | 0.571
LIFVSYDDWDY [GRIN2A_Y281_S278F] | 1.38 | 1.38 | 1.16 | 0.774 | 1.77 | 0.914 | 4.89 | 0.618 | 1.8 | 2.22 | 2.07 | 0.966 | 2.75 | 0.95 | 1.49 | 2.52
LITLVYGCSRQ [TMPRSS6_Y290_S288L] | 1.29 | 1.04 | 0.54 | 0.721 | 0.863 | 1.08 | 0.848 | 0.851 | 0.644 | 1.86 | 1.7 | 0.578 | 1.74 | 0.599 | 0.978 | 0.876
LKLIQYHLTQQ [AKAP4_Y554] | 1.03 | 1.31 | 0.762 | 0.534 | 0.879 | 0.599 | 0.711 | 1.15 | 0.88 | 1.28 | 0.902 | 0.5 | 1.34 | 0.932 | 0.646 | 0.774
LLIMEYAKYGS [RET_Y806_V804M] | 1.41 | 1.04 | 1.11 | 0.64 | 1.19 | 0.973 | 0.903 | 0.6 | 1.4 | 2.18 | 1.39 | 1.03 | 1.81 | 0.999 | 1.51 | 1.02
LLPNAYIFVVQ [L1CAM_Y418_A415P_YF] | 0.65 | 0.508 | 0.47 | 0.73 | 1.07 | 0.481 | 0.731 | 0.561 | 0.849 | 1.5 | 1.79 | 0.634 | 1.66 | 0.868 | 1.06 | 1.06
LLVVLYKFRCF [PSEN1_Y154_Y159F_YF] | 1.98 | 1.92 | 1.85 | 0.622 | 1.56 | 0.937 | 0.718 | 1.03 | 0.685 | 1.85 | 1.39 | 0.51 | 1.97 | 0.568 | 1.77 | 0.773
LNCDRYSAGLL [PDE6A_Y275_V277A] | 0.755 | 0.595 | 0.419 | 0.39 | 0.612 | 0.448 | 0.432 | 0.378 | 0.487 | 0.87 | 0.919 | 0.512 | 0.834 | 0.396 | 0.673 | 0.481
LNRAGYCDALE [MTUS1_Y151_C148R] | 0.773 | 0.773 | 0.727 | 0.424 | 0.994 | 0.591 | 0.571 | 0.484 | 0.684 | 1 | 1.06 | 0.537 | 1.12 | 0.686 | 0.749 | 0.988
LPVHFYSHVEH [PYGM_Y204_G205S] | 0.964 | 8.86 | 22.2 | 0.852 | 1.29 | 1.21 | 1.26 | 0.859 | 1.05 | 1.71 | 1.13 | 0.689 | 1.63 | 0.651 | 1.2 | 0.878
LQKNIYSEELR [LMNA_Y211_F206L] | 0.709 | 0.7 | 0.582 | 1.49 | 1.37 | 0.722 | 0.61 | 4.38 | 1.82 | 0.508 | 1.32 | 1.92 | 1.39 | 1.79 | 0.445 | 1.02
LQLLGDRPVYS [CHST6_Y358_Y358D] | 0.772 | 0.792 | 0.335 | 1.37 | 1.64 | 1.35 | 1.53 | 0.683 | 2.17 | 2.78 | 1.88 | 1.7 | 3.27 | 1.63 | 1.3 | 2.16
LRLSSYSTTIR [CYP7B1_Y365] | 1.1 | 0.823 | 0.796 | 0.615 | 0.756 | 0.658 | 0.524 | 0.686 | 0.674 | 0.936 | 1.41 | 0.687 | 1.1 | 0.655 | 0.676 | 0.708
